For eleven molecules, binding result and EC50 results are on record in US20260167698A1 (ONO PHARMACEUTICAL, published 2026).

The target in assay [1] is T1, human Allergin-1L (expressed on CHO cells) (human, UniProt Q7Z6M3 20-343).
T1 construct: also called MILR1; human Allergin-1L-expressing CHO cell lines
T1 sequence: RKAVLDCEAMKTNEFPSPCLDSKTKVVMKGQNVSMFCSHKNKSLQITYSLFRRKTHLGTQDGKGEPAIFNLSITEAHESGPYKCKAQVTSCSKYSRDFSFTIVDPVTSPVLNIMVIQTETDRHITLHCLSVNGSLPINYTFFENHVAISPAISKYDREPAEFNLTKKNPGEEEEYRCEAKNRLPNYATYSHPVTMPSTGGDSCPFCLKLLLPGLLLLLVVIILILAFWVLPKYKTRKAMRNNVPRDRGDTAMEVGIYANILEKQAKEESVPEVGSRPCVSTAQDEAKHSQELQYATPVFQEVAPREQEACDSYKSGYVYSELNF
Nature of the assay: selected on binding by CELISA and SPR (Example 5). Here is the method: The purified humanized scFv was analyzed for binding to CHO cells stably expressing human Allergin-1L and monkey Allergin-1, by CELISA, respectively. In detail, the CHO cells were seeded in 96-well plates, to which diluted humanized scFv was added, and which were incubated at 37° C. After washing the CHO cells, to which diluted HRP-labeled Protein L was added, and which were incubated again at 37° C. After washing the CHO cells again, to which HRP chromogenic substrate was added, and which were incubated at room temperature, and then in which absorbance was measured. As a result, the bindings to human Allergin-1L and monkey Allergin-1 were confirmed in several clones.
Furthermore, for each humanized scFv, the binding to Fc-fused human Allergin-1L recombinant protein was analyzed by SPR method. In detail, Fc-fused human Allergin-1L recombinant protein was immobilized on a sensor chip, followed by flowing humanized scFv as an analyte into a flow cell. As a result, the bindings to human Allergin-1L were confirmed in several clones.

For assay [2], the target named is T1, human Allergin-1L (expressed on CHO …). Nature of the assay: flow cytometry, binding to Allergin-1L. For orientation: A flow cytometer gives signals particle by particle.

B1: humanized scFv Pro1742 (scFv, V domains shown)
VH: EVQLVESGGGLVQPGGSLRLSCAASGFSLNNYFMIWVRQAPGKCLEWIGIITSYHTTYFANWAKGRFTISRDNSKNTVYLQMNSLRAEDTAVYYCAPYDIYGYPTLWGQGTLVTVSS
VL: DIQMTQSPSSLSASVGDRVTITCQASQSIGAYLSWYQQKPGKAPKLLIYEASTLASGVPSRFSGSGSGTDFTLTISSLQPEDFATYYCLGAYGRSSDDGTAFGCGTKVTVLG
notes: A single-chain Fv
As for B1, in assay [1], the binding result is “binds”.

B2: humanized scFv Pro1570 (scFv, V domains shown)
VH: EVQLVESGGGLVQPGGSLRLSCAASGFSLSSYAMIWVRQAPGKGLEWIGFIDTDGHTEYANWAKGRFTISRDNSKNTVYLQMNSLRAEDTAVYYCARDGDHDYWGFNLWGQGTLVTVSS
VL: DIQMTQSPSSLSASVGDRVTITCQASQNIYRNLVWYQQKPGKAPKLLIYGASELESGVPSRFSGSGSGTDFTLTISSLQPEDFATYYCLSTYYISSSDNSFGTGTKVTVLG
notes: A single-chain Fv
On to B2, for which the binding result in assay [1] was “binds”.

B3: humanized scFv Pro1751 (scFv, V domains shown)
VH: EVQLVESGGGLVQPGGSLRLSCAASGIDFSSYYDMCWVRQAPGKCLEWIGCIYTGSVGELYYASWAKGRFTISRDNSKNTVYLQMNSLRAEDTAVYYCARRGSGVDDYYFNLWGQGTLVTVSS
VL: DIQMTQSPSSLSASVGDRVTITCQSSQSVDNNNWLAWYQQKPGKAPKLLIYDASTLASGVPSRFSGSGSGTDFTLTISSLQPEDFATYYCQGTYYTTDWWNSFGCGTKVTVLG
notes: A single-chain Fv
As to B3, the binding result in assay [1] is given as “binds”.

B4: humanized scFv Pro1707 (scFv, V domains shown)
VH: ESQLVESGGGLVQPGGSLRLSCAVSGIDLSSYAVGWVRQAPGKGLEWIGIIGRSGSIYYASWAKGRFTISKDNSKNTVYLQMNSLRAEDTAVYYCARDVDSRPPTGSLWGQGTLVTVSS
VL: DVQMTQSPSSLSASVGDRVTITCQASQNTYSNLDWYQQKPGKAPKLLIYQASKLASGVPSRFSGSGSGTDFTLTISSLQPEDFATYYCQSTSWGSSYVGGFGTGTKVTVLG
notes: A single-chain Fv
On to B4, for which the binding result in assay [1] is recorded as “binds”.

B5: humanized scFv Pro1588 (scFv, V domains shown)
VH: EVQLVESGGGLVQPGGSLRLSCAASGFSLTIYTITWVRQAPGKGLEWIGTINSYGNTYYSTWAKGRFTISRDNSKNTVYLQMNSLRAEDTAVYYCARGYVDSDWYLNIWGQGTLVTVSS
VL: DIQMTQSPSSLSASVGDRVTITCQSSESVYDNNYLSWYQQKPGKAPKLLIYDASRLASGVPSRFSGSGSGTDFTLTISSLQPEDFATYYCLGGYDSSGWYAAFGTGTKVTVLG
notes: A single-chain Fv
Regarding B5, the binding result in assay [1] was “binds”.

B6: humanized scFv Pro1586 (scFv, V domains shown)
VH: EVQLVESGGGLVQPGGSLRLSCAASGIDLSYYAMNWVRQAPGKGLEWIGMIVGGGITFYANWAKGRFTISRDNSKNTVYLQMNSLRAEDTAVYYCAVGSDGGISDFNIWGQGTLVTVSS
VL: DIQMTQSPSSLSASVGDRVTITCQASQSISSYLAWYQQKPGKAPKLLIYRASTLASGVPSRFSGSGSGTDFTLTISSLQPEDFATYYCQQAYSLSNVDNFFGTGTKVTVLG
notes: A single-chain Fv
As for B6, in assay [1], the binding result is reported as “binds”.

B7: anti-Allergin-1 bispecific antibody #15_h_optv2 clone (bispecific antibody, human IgG1, kappa, L234A L235A, N297A)
heavy: EVQLVESGGGLVQPGGSLRLSCAASGFSLSSHAMSWVRQAPGKGLEWIGTISTIDTTYYASWAKGRFTISRDNSKNTVYLQMNSLRAEDTAVYYCARLSELYTTNSYYSRWGQGTLVTVSSASTKGPSVFPLAPSSKSTSGGTAALGCLVKDYFPEPVTVSWNSGALTSGVHTFPAVLQSSGLYSLSSVVTVPSSSLGTQTYICNVNHKPSNTKVDKRVEPKSCDKTHTCPPCPAPEAAGGPSVFLFPPKPKDTLMISRTPEVTCVVVDVSHEDPEVKFNWYVDGVEVHNAKTKPREEQYASTYRVVSVLTVLHQDWLNGKEYKCKVSNKALPAPIEKTISKAKGQPREPQVYTLPPSREEMTKNQVSLTCLVKGFYPSDIAVEWESNGQPENNYKTTPPVLDSDGSFFLYSKLTVDKSRWQQGNVFSCSVMHEALHNHYTQKSLSLSPGGGGGSGGGGSAIQMTQSPSSLSARVGDRVTITCQSSESVYDNNYLSWYQQKPGKAPKLLIYDASRLASGVPSRFSGSGSGTQFTLTISSLQPEDFATYYCLGGYDSSGWYAAFGTGTKVTVLGGGGGSGGGGSGGGGSGGGGSEVQLVESGGGLVQPGGSLRLSCAASGFSLTIYTITWVRQAPGKGLEWIGTINSYGNTYYSTWAKGRFTISRDNSKNTVYLQMNSLRAEDTAVYYCARGYVDSDWYLNIWGQGTLVTVSS
light: DIQMTQSPSSLSASVGDRVTITCQASESIGSLLAWYQQKPGKAPKLLIYRASTLESGVPSRFSGSGSGTDFTLTISSLQPEDFATYYCQSYHYSSSSSYAAFGQGTKVEIKRTVAAPSVFIFPPSDEQLKSGTASVVCLLNNFYPREAKVQWKVDNALQSGNSQESVTEQDSKDSTYSLSSTLTLSKADYEKHKVYACEVTHQGLSSPVTKSFNRGEC
notes: Morrison form: Fab Pro1571, scFv Pro2281
For orientation: EC50 means the midpoint of the concentration-response curve. Read a low EC50 as an effect from little substance. Molecule B7 gave an EC50 in assay [2] of 2.41 nM.

B8: anti-Allergin-1 bispecific antibody #15_h clone (bispecific antibody, human IgG1, kappa, L234A L235A, N297A)
heavy: EVQLVESGGGLVQPGGSLRLSCAASGFSLSSHAMSWVRQAPGKGLEWIGTISTIDTTYYASWAKGRFTISRDNSKNTVYLQMNSLRAEDTAVYYCARLSELYTTNSYYSRWGQGTLVTVSSASTKGPSVFPLAPSSKSTSGGTAALGCLVKDYFPEPVTVSWNSGALTSGVHTFPAVLQSSGLYSLSSVVTVPSSSLGTQTYICNVNHKPSNTKVDKRVEPKSCDKTHTCPPCPAPEAAGGPSVFLFPPKPKDTLMISRTPEVTCVVVDVSHEDPEVKFNWYVDGVEVHNAKTKPREEQYASTYRVVSVLTVLHQDWLNGKEYKCKVSNKALPAPIEKTISKAKGQPREPQVYTLPPSREEMTKNQVSLTCLVKGFYPSDIAVEWESNGQPENNYKTTPPVLDSDGSFFLYSKLTVDKSRWQQGNVFSCSVMHEALHNHYTQKSLSLSPGGGGGSGGGGSDIQMTQSPSSLSASVGDRVTITCQSSESVYDNNYLSWYQQKPGKAPKLLIYDASRLASGVPSRFSGSGSGTDFTLTISSLQPEDFATYYCLGGYDSSGWYAAFGTGTKVTVLGGGGGSGGGGSGGGGSGGGGSEVQLVESGGGLVQPGGSLRLSCAASGFSLTIYTITWVRQAPGKGLEWIGTINSYGNTYYSTWAKGRFTISRDNSKNTVYLQMNSLRAEDTAVYYCARGYVDSDWYLNIWGQGTLVTVSS
light: DIQMTQSPSSLSASVGDRVTITCQASESIGSLLAWYQQKPGKAPKLLIYRASTLESGVPSRFSGSGSGTDFTLTISSLQPEDFATYYCQSYHYSSSSSYAAFGQGTKVEIKRTVAAPSVFIFPPSDEQLKSGTASVVCLLNNFYPREAKVQWKVDNALQSGNSQESVTEQDSKDSTYSLSSTLTLSKADYEKHKVYACEVTHQGLSSPVTKSFNRGEC
notes: Morrison form antibody: Fab from Pro1571 (S2-D), scFv from Pro1588 (S1-A) on the heavy chain C-terminus
With B8, the concentration giving a half-maximal response (EC50) in assay [2] worked out at 2.37 nM.

B9: anti-Allergin-1 bispecific antibody #15_h_opt clone (bispecific antibody, human IgG1, kappa, L234A L235A, N297A)
heavy: EVQLVESGGGLVQPGGSLRLSCAASGFSLSSHAMSWVRQAPGKGLEWIGTISTIDTTYYASWAKGRFTISRDNSKNTVYLQMNSLRAEDTAVYYCARLSELYTTNSYYSRWGQGTLVTVSSASTKGPSVFPLAPSSKSTSGGTAALGCLVKDYFPEPVTVSWNSGALTSGVHTFPAVLQSSGLYSLSSVVTVPSSSLGTQTYICNVNHKPSNTKVDKRVEPKSCDKTHTCPPCPAPEAAGGPSVFLFPPKPKDTLMISRTPEVTCVVVDVSHEDPEVKFNWYVDGVEVHNAKTKPREEQYASTYRVVSVLTVLHQDWLNGKEYKCKVSNKALPAPIEKTISKAKGQPREPQVYTLPPSREEMTKNQVSLTCLVKGFYPSDIAVEWESNGQPENNYKTTPPVLDSDGSFFLYSKLTVDKSRWQQGNVFSCSVMHEALHNHYTQKSLSLSPGGGGGSGGGGSAIQMTQSPSSLSARVGDRVTITCQSSESVYDNNYLSWYQQKPGKAPKLLIYDASRLASGVPSRFSGSGSGTQFTLTISSLQPEDFATYYCLGGYDSSGWYAAFGCGTKVTVLGGGGGSGGGGSGGGGSGGGGSEVQLVESGGGLVQPGGSLRLSCAASGFSLTIYTITWVRQAPGKCLEWIGTINSYGNTYYSTWAKGRFTISRDNSKNTVYLQMNSLRAEDTAVYYCARGYVDSDWYLNIWGQGTLVTVSS
light: DIQMTQSPSSLSASVGDRVTITCQASESIGSLLAWYQQKPGKAPKLLIYRASTLESGVPSRFSGSGSGTDFTLTISSLQPEDFATYYCQSYHYSSSSSYAAFGQGTKVEIKRTVAAPSVFIFPPSDEQLKSGTASVVCLLNNFYPREAKVQWKVDNALQSGNSQESVTEQDSKDSTYSLSSTLTLSKADYEKHKVYACEVTHQGLSSPVTKSFNRGEC
notes: Morrison form: Fab Pro1571, scFv Pro2282
The molecule B9 showed an EC50 in assay [2] of 2.58 nM. The EC50 values of the last two molecules are within 1.5-fold of each other.

B10: humanized scFv Pro1571 (scFv, V domains shown)
VH: EVQLVESGGGLVQPGGSLRLSCAASGFSLSSHAMSWVRQAPGKGLEWIGTISTIDTTYYASWAKGRFTISRDNSKNTVYLQMNSLRAEDTAVYYCARLSELYTTNSYYSRWGQGTLVTVSS
VL: DIQMTQSPSSLSASVGDRVTITCQASESIGSLLAWYQQKPGKAPKLLIYRASTLESGVPSRFSGSGSGTDFTLTISSLQPEDFATYYCQSYHYSSSSSYAAFGTGTKVTVLG
notes: A single-chain Fv
In the case of B10, in assay [1], the binding result was “binds”.

B11: humanized scFv Pro1565 (scFv, V domains shown)
VH: EVQLVESGGGLVQPGGSLRLSCAASGFSLSSHAMAWVRQAPGKGLEWIGYIWSGGITEYPSWAKGRFTISRDNSKNTVYLQMNSLRAEDTAVYYCARDVHIYGDIYAFDLWGQGTLVTVSS
VL: DIQMTQSPSSLSASVGDRVTITCQASQDIESYLNWYQQKPGKAPKLLIYYASTLASGVPSRFSGSGSGTDFTLTISSLQPEDFATYYCQQSYSNSDVDKNVFGTGTKVTVLG
notes: A single-chain Fv
Turning to B11, in assay [1], the binding result is given as “binds”.
